Positions count from the first letter of the chain named. Numbers in names are those of the source.

Experiment [1] has as its target T1, Recombinant Human DLL4 (delta-like protein 4) (human, UniProt Q9NR61 27-524).
T1 construct: also called rHuman DLL4; Delta-like 4
The experiment in a line: ECL (MSD) multispot binding assay, Fab on immobilised recombinant human DLL4.

Experiment [2] addresses T2, Recombinant Human DLL4 (R&D Systems Cat#1506-D4/CF) (human, UniProt Q9NR61 27-524).
T2 construct: Bought recombinant protein; also called delta-like protein 4; Delta-like 4
The experiment in a line: ELISA, DLL4 coated on plate, Fab at 0.74 nM.

In experiment [3] the target is T2, Recombinant Human DLL4 (R&D Systems …). Nature of the experiment: ELISA, DLL4 coated on plate, Fab at 20 nM.
For experiment [4] the target is unchanged. The experiment in a line: ELISA, DLL4 coated on plate, Fab at 6.67 nM.
For experiment [5] the target is unchanged. The experiment in a line: ELISA, DLL4 coated on plate, Fab at 2.22 nM.

B1: Fab VH5-51_IGHD5-18*01>3_IGHJ4*01 G100K/G104T (H:KT) & V3-4_IGLJ1*01 S57A (Fab, V domains shown)
VH: EVQLVQSGAEVKKPGESLKISCKGSGYSFTSYWIGWVRQMPGKGLEWMGIIYPGDSDTRYSPSFQGQVTISADKSISTAYLQWSSLKASDTAMYYCARRKYSYTYDYFDYWGQGTLVTVSS
VL: QTVVTQEPSFSVSPGGTVTLTCGLSSGSVSTSYYPSWYQQTPGQAPRTLIYSTNTRASGVPDRFSGSILGNKAALTITGAQADDESDYYCVLYMGSGISYVFGTGTKVTVL
notes: Fab (CH1 with His6/Flag tags from Plasmid A, lambda CL from Plasmid E); also called G100K/G104T & S57A
For B1, in experiment [1], the “ECL signal” value came to 12600.

B2: Fab VH5-51_IGHD5-18*01>3_IGHJ4*01 G100K/G104T (H:KT) & V3-4_IGLJ1*01 M94R/S96M (L:RM) (Fab, V domains shown)
VH: B1 VH
VL: B1 VL with A57S, M94R, S96M
notes: Fab expressed in E. coli; Plasmid A adds CH1 with His6 and Flag tags to the heavy chain; Plasmid E adds lambda CL to the light chain; also called H:KT & L:RM; G100K/G104T & M94R/S96M
For the molecule B2, the ELISA signal in experiment [2] worked out at 0; in experiment [3], 0.087; in experiment [4] it was 0.023; in experiment [5], 0.007.

B3: Fab VH5-51_IGHD5-18*01>3_IGHJ4*01 G100K/G104T (H:KT) & V3-4_IGLJ1*01 S58A (Fab, V domains shown)
VH: B1 VH
VL: B1 VL with A57S, S58A
notes: Fab (CH1 with His6/Flag tags from Plasmid A, lambda CL from Plasmid E); also called G100K/G104T & S58A
Turning to B3, the “ECL signal” value in experiment [1] was 12600.

B4: Fab VH5-51_IGHD5-18*01>3_IGHJ4*01 G100K/G104T (H:KT) & V3-4_IGLJ1*01 N54A (Fab, V domains shown)
VH: B1 VH
VL: B1 VL with N54A, A57S
notes: Fab (CH1 with His6/Flag tags from Plasmid A, lambda CL from Plasmid E); also called G100K/G104T & N54A
For B4, the “ECL signal” value in experiment [1] is 12900.

B5: Fab VH5-51_IGHD5-18*01>3_IGHJ4*01 G100K/G104T G24L/S28R/G35V (H:KT LRV) & V3-4_IGLJ1*01 (Fab, V domains shown)
VH: B1 VH with G24L, S28R, G35V
VL: B1 VL with A57S
notes: Fab expressed in E. coli; Plasmid A adds CH1 with His6 and Flag tags to the heavy chain; Plasmid E adds lambda CL to the light chain; also called H:KT LRV & L:wt; G100K/G104T G24L/S28R/G35V & parent
Turning to B5, the ELISA signal in experiment [2] was determined as 0.006; in experiment [3], 0.027; in experiment [4], 0.005; in experiment [5], 0.

B6: Fab VH5-51_IGHD5-18*01>3_IGHJ4*01 G100K/G104T (H:KT) & V3-4_IGLJ1*01 T53A (Fab, V domains shown)
VH: B1 VH
VL: B1 VL with T53A, A57S
notes: Fab (CH1 with His6/Flag tags from Plasmid A, lambda CL from Plasmid E); also called G100K/G104T & T53A
Consider B6, for which, in experiment [1], the “ECL signal” value worked out at 13200.

B7: Fab VH5-51_IGHD5-18*01>3_IGHJ4*01 G100K/G104T (H:KT) & V3-4_IGLJ1*01 S52A (Fab, V domains shown)
VH: B1 VH
VL: B1 VL with S52A, A57S
notes: Fab (CH1 with His6/Flag tags from Plasmid A, lambda CL from Plasmid E); also called G100K/G104T & S52A
For B7, the “ECL signal” value in experiment [1] was found to be 15200.

B8: Fab VH5-51_IGHD5-18*01>3_IGHJ4*01 G100K/G104T (H:KT) & V3-4_IGLJ1*01 T55A (Fab, V domains shown)
VH: B1 VH
VL: B1 VL with T55A, A57S
notes: Fab (CH1 with His6/Flag tags from Plasmid A, lambda CL from Plasmid E); also called G100K/G104T & T55A
In the case of B8, the “ECL signal” value in experiment [1] amounted to 12700.

B9: Fab VH5-51_IGHD5-18*01>3_IGHJ4*01 G100K/G104T G24T/S28R/G35V (H:KT TRV) & V3-4_IGLJ1*01 (Fab, V domains shown)
VH: B1 VH with G24T, S28R, G35V
VL: B1 VL with A57S
notes: Fab expressed in E. coli; Plasmid A adds CH1 with His6 and Flag tags to the heavy chain; Plasmid E adds lambda CL to the light chain; also called H:KT TRV & L:wt; G100K/G104T G24T/S28R/G35V & parent
Regarding B9, the ELISA signal in experiment [2] was found to be 0.002; in experiment [3], 0.054; in experiment [4], 0.023; in experiment [5] it was 0.

B10: Fab VH5-51_IGHD5-18*01>3_IGHJ4*01 G100K/G104T G24A/S28R/G35V (H:KT ARV) & V3-4_IGLJ1*01 (Fab, V domains shown)
VH: B1 VH with G24A, S28R, G35V
VL: B1 VL with A57S
notes: Fab expressed in E. coli; Plasmid A adds CH1 with His6 and Flag tags to the heavy chain; Plasmid E adds lambda CL to the light chain; also called H:KT ARV & L:wt; G100K/G104T G24A/S28R/G35V & parent
Take B10: the ELISA signal in experiment [2] stood at 0.008; in experiment [3] it was 0.054; in experiment [4], 0.025; in experiment [5] it was 0.002.

B11: Fab VH5-51_IGHD5-18*01>3_IGHJ4*01 G100K/G104T S28R (H:KT S28R) & V3-4_IGLJ1*01 (Fab, V domains shown)
VH: B1 VH with S28R
VL: B1 VL with A57S
notes: Fab expressed in E. coli; Plasmid A adds CH1 with His6 and Flag tags to the heavy chain; Plasmid E adds lambda CL to the light chain; also called H:KT S28R & L:wt; G100K/G104T S28R & parent
B11: the ELISA signal in experiment [2] came out at 0; in experiment [3] it was 0.009; in experiment [4], 0.003; in experiment [5], 0.

B12: Fab VH5-51_IGHD5-18*01>3_IGHJ4*01 G100K/G104T G24T/S28R/G35V (H:KT TRV) & V3-4_IGLJ1*01 M94R/S96M (L:RM) (Fab, V domains shown)
VH: B1 VH with G24T, S28R, G35V
VL: B1 VL with A57S, M94R, S96M
notes: Fab expressed in E. coli; Plasmid A adds CH1 with His6 and Flag tags to the heavy chain; Plasmid E adds lambda CL to the light chain; also called H:KT TRV & L:RM; G100K/G104T G24T/S28R/G35V & M94R/S96M
For B12, the ELISA signal in experiment [2] is 0.006; in experiment [3], 0.122; in experiment [4] it was 0.062; in experiment [5], 0.028.

Values taken from patent US20120316071A1 (published 2012).
